Measured values taken from patent US20250152746A1, “BASE EDITING OF ANGPTL3 AND METHODS OF USING SAME FOR TREATMENT OF DISEASE” (Verve Therapeutics, Inc., priority 2020, published 2025).
In the oligonucleotide strings, read from the 5' end, every base follows the letter of its sugar. An asterisk marks phosphorothioate; unmarked linkages are phosphodiester. Other units and linkages are bracketed, terminal groups are in braces. A string of capitals states the bases alone. m = 2'-O-methyl; r = 2'-OH (RNA)

B1: GA237: PCSK9 gRNA; protospacer CAACGCCGCCTGCCAGCGCC (SEQ ID NO: 230) (nucleic acid)
guide: CAACGCCGCCUGCCAGCGCCGUUUUAGAGCUAGAAAUAGCAAGUUAAAAUAAGGCUAGUCCGUUAUCAACUUGAAAAAGUGGCACCGAGUCGGUGCUUUU
modifications: sugars from the 5' end m3 r94 m3, linkages s3 o93 s3 (s phosphorothioate, o phosphodiester), T or U not given here
B2: GA240: PCSK9 gRNA; protospacer TGCCAGCGCCTGGCGAGGGC (SEQ ID NO: 233) (nucleic acid)
guide: UGCCAGCGCCUGGCGAGGGCGUUUUAGAGCUAGAAAUAGCAAGUUAAAAUAAGGCUAGUCCGUUAUCAACUUGAAAAAGUGGCACCGAGUCGGUGCUUUU
modifications: sugars from the 5' end m3 r94 m3, linkages s3 o93 s3 (s phosphorothioate, o phosphodiester), T or U not given here
B3: GA241: PCSK9 gRNA; protospacer TGCTGCTGCCCCTGGCGGGT (SEQ ID NO: 234) (nucleic acid)
guide: UGCUGCUGCCCCUGGCGGGUGUUUUAGAGCUAGAAAUAGCAAGUUAAAAUAAGGCUAGUCCGUUAUCAACUUGAAAAAGUGGCACCGAGUCGGUGCUUUU
modifications: sugars from the 5' end m3 r94 m3, linkages s3 o93 s3 (s phosphorothioate, o phosphodiester), T or U not given here
B4: GA236: PCSK9 gRNA; protospacer AGCCCTCGCCAGGCGCTGGC (SEQ ID NO: 229) (nucleic acid)
guide: AGCCCUCGCCAGGCGCUGGCGUUUUAGAGCUAGAAAUAGCAAGUUAAAAUAAGGCUAGUCCGUUAUCAACUUGAAAAAGUGGCACCGAGUCGGUGCUUUU
modifications: sugars from the 5' end m3 r94 m3, linkages s3 o93 s3 (s phosphorothioate, o phosphodiester), T or U not given here
B5: GA234: PCSK9 gRNA; protospacer CGCCTGCCAGCGCCTGGCGA (SEQ ID NO: 252) (nucleic acid)
guide: mC*mG*mC*rCrUrGrCrCrArGrCrGrCrCrUrGrGrCrGrArGrUrUrUrUrArGrArGrCrUrArGrArArArUrArGrCrArArGrUrUrArArArArUrArArGrGrCrUrArGrUrCrCrGrUrUrArUrCrArArCrUrUrGrArArArArArGrUrGrGrCrArCrCrGrArGrUrCrGrGrUrGrCrU*mU*mU*mU
B6: GA239: PCSK9 gRNA; protospacer CCGCCTGCCAGCGCCTGGCG (SEQ ID NO: 232) (nucleic acid)
guide: CCGCCUGCCAGCGCCUGGCGGUUUUAGAGCUAGAAAUAGCAAGUUAAAAUAAGGCUAGUCCGUUAUCAACUUGAAAAAGUGGCACCGAGUCGGUGCUUUU
modifications: sugars from the 5' end m3 r94 m3, linkages s3 o93 s3 (s phosphorothioate, o phosphodiester), T or U not given here

tested on: PCSK9 gene; assay: PCSK9 gRNA/SpCas9 editing in primary human hepatocytes (Tables 2, 4); assay type: cell-based; conditions: 100 ng/RNA/mL; SpCas9 mRNA MS002 1:1 by weight
How it was run: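 Primary human hepatocytes co-transfected with PCSK9 gRNA plus SpCas9 mRNA (1:1 by weight) at 2500, 500 or 100 ng RNA/mL, or 2500–250 ng/mL for tracr-modified guides. Editing at the target site read by amplicon next-generation sequencing of extracted genomic DNA.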

Row | Molecule | Human Primary Hepatocyte Editing % 100
1 | B1 | 4.53%
2 | B2 | 1.05%
3 | B3 | 0.61%
4 | B4 | 6.92%
5 | B5 | 0.06%
6 | B6 | 0.06%

same assay, conditions: 500 ng/RNA/mL; SpCas9 mRNA MS002 1:1 by weight

Row | Molecule | Human Primary Hepatocyte Editing % 500
7 | B1 | 15.83%
8 | B2 | 0.24%
9 | B3 | 1.49%
10 | B4 | 3.13%
11 | B5 | 2.29%
12 | B6 | 1.73%

same assay, conditions: 2500 ng/RNA/mL; SpCas9 mRNA MS002 1:1 by weight

Row | Molecule | Human Primary Hepatocyte Editing % 2500
13 | B1 | 36.78%
14 | B2 | 7.94%
15 | B3 | 5.39%
16 | B4 | 22.41%
17 | B5 | 5.45%
18 | B6 | 3.49%

tested on: PCSK9 gene; assay: PCSK9 gRNA/SpCas9 editing in primary cynomolgus hepatocytes (Tables 2, 22); assay type: cell-based, cynomolgus monkey; conditions: 100 ng/RNA/mL; SpCas9 mRNA MS002 1:1 by weight

Row | Molecule | Cyno Primary Hepatocyte Editing % 100
19 | B1 | 2.17%
20 | B2 | 0.52%
21 | B3 | 0.97%
22 | B4 | 2.31%
23 | B5 | 0.21%
24 | B6 | 0.02%

same assay, conditions: 500 ng/RNA/mL; SpCas9 mRNA MS002 1:1 by weight

Row | Molecule | Cyno Primary Hepatocyte Editing % 500
25 | B1 | 13.46%
26 | B2 | 1.9%
27 | B3 | 2.94%
28 | B4 | 11.62%
29 | B5 | 1.53%
30 | B6 | 0.55%

same assay, conditions: 2500 ng/RNA/mL; SpCas9 mRNA MS002 1:1 by weight

Row | Molecule | Cyno Primary Hepatocyte Editing % 2500
31 | B1 | 46.01%
32 | B2 | 10.62%
33 | B3 | 16.11%
34 | B4 | 37.44%
35 | B5 | 6.44%
36 | B6 | 4.55%
